Results: article PMC6348423, “Rapid Mapping of Protein Interactions Using Tag‐Transfer Photocrosslinkers” (Angewandte Chemie (International Ed. in English), 2018)
Ends that are not written are not given here. Peptide text beside a SMILES is read from it. * marks the point of attachment. MTS‑TFMD = trifluoromethyl phenyl diazirine photocrosslinker tag, disulfide-linked to Cys via MTS; MTS‑diazirine = alkyl diazirine tag, disulfide-linked to Cys via MTS; X1 = FC(F)(F)C1(c2ccc(CS*)cc2)N=N1; X2 = CC1(CCS*)N=N1

T1: MCL-1 (human, UniProt Q07820 1-350)
T1 chain: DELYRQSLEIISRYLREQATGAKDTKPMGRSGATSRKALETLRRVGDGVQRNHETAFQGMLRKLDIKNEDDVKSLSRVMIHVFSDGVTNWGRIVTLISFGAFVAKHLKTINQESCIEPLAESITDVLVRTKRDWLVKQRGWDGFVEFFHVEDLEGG

B1: BID_(80-102) S100C tagged with MTS-diazirine (peptide)
chain: EDIIRNIARHLAQVGDSMDRCIP
modifications: Cys100 disulfide-linked to MTS-diazirine (alkyl diazirine) tag; synthetic peptide, termini not stated in main text Limits not printed in the main text (supplement); 172-327 is the usual soluble MCL-1 construct for BH3 assays, close to the PDB 2KBW construct
B2: BID_(80-102) S100C tagged with MTS-TFMD (peptide)
chain: EDIIRNIARHLAQVGDSMDRCIP
modifications: Cys100 disulfide-linked to MTS-TFMD (trifluoromethyl phenyl diazirine) tag; synthetic peptide, termini not stated in main text Limits not printed in the main text (supplement); 172-327 is the usual soluble MCL-1 construct for BH3 assays, close to the PDB 2KBW construct
B3: WT BID_(80-102) (peptide)
peptide: EDIIRNIARHLAQVGDSMDRSIP
modifications: Limits not printed in the main text (supplement); 172-327 is the usual soluble MCL-1 construct for BH3 assays, close to the PDB 2KBW construct

Biological target: T2, MCL-1 (Homo sapiens, UniProt Q07820)
T2 construct: made in house
T2 sequence (Q07820 whole entry): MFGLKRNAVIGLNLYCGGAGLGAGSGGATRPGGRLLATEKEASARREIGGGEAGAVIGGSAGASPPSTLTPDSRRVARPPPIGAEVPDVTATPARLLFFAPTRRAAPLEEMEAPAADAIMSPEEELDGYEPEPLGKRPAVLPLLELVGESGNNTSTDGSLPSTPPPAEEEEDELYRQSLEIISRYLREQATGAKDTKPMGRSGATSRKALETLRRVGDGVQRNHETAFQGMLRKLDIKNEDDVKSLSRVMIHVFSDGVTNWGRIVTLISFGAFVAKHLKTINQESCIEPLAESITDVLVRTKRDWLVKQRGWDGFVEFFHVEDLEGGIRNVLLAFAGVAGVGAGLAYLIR
Assay: Photo-crosslinking of labelled BID80-102 peptides to MCL-1, SDS-PAGE band intensity
Conditions: 20 μM labelled peptide + 20 μM MCL-1, TBS pH 7.6; 365 nm UV LED, 1 min; SDS-PAGE band intensity of crosslinked vs non-crosslinked MCL-1; value ± SD of three repeats
Experimental: Cross-linking experiments
For all irradiation methods, samples were prepared in the following way. For crosslinking of MCL-1/BID80-102, 20 μL of a solution containing MTS-diazirine or MTS-TFMD labelled BID80-102 peptide (20 μM) and MCL-1 (20 μM) in buffer 50 mM Tris-HCl, 150 mM NaCl (TBS) pH 7.6 was prepared. […]
This was then placed under a covered LF-206.LS 6 W 365 nm lamp (Uvitec) at a distance of 12 mm from the source for different times up to 30 min. For UV LED chip experiments, acrylic chip chambers were washed with TBS pH 7.6 buffer and 33 µL of sample was added. These were then clamped into the chip holder and irradiated with the 365 nm LED for up to 30 s. A pipette was used to remove the sample from the chip via the lower filling hole. For UV LED tube experiments, 30-130 µL of sample was added to a thin-walled PCR tube and placed inside a 0.5 mL microfuge tube which itself was in a 1.5 mL microfuge tube that had been wrapped in aluminium foil (to reflect the UV irradiation within the containers). Samples were irradiated with the 365 nm LED for 30 s. To crosslink MCL-1 BID80-102, samples were irradiated using this apparatus for 1 min.
Separation and enrichment of cross-linked products
To separate and/or enrich crosslinked samples three methods were used as described in the main text.
Table S1: Affinity (EC50) of labelled BID80-102 peptides to MCL-1 as determined by competition fluorescence anisotropy assay. Crosslinking efficiency of labelled BID80-102 peptides to MCL-1 based on the SDS-PAGE band intensity of crosslinked and non-crosslinked […]
The values and standard deviations are results of three repeats. n.d = not determined as binding was too weak to enable an accurate fit to be obtained.
BID peptide EC50 for affinity to MCL-1 (nM) Crosslinked Mcl-1 (%)

Q: `CC[C@H](C)[C@H](NC(=O)[C@H](CC(N)=O)NC(=O)[C@H](CCCNC(=N)N)NC(=O)[C@@H](NC(=O)[C@@H](NC(=O)[C@H](CC(=O)O)NC(=O)[C@H](CCC(=O)O)NC(C)=O)[C@@H](C)CC)[C@@H](C)CC)C(=O)N[C@@H](C)C(=O)N[C@@H](CCCNC(=N)N)C(=O)N[C@@H](Cc1c[nH]cn1)C(=O)N[C@@H](CC(C)C)C(=O)N[C@@H](C)C(=O)N[C@@H](CCC(N)=O)C(=O)N[C@H](C(=O)NCC(=O)N[C@@H](CC(=O)O)C(=O)N[C@@H](CO)C(=O)N[C@@H](CCSC)C(=O)N[C@@H](CC(=O)O)C(=O)N[C@@H](CCCNC(=N)N)C(=O)N[C@@H](CO)C(=O)N[C@H](C(=O)N[C@@H](Cc1c[nH]c2ccccc12)C(N)=O)[C@@H](C)CC)C(C)C` [WT, reference compound] was tested. Which “Crosslinked Mcl-1 (crosslinking efficiency)” value did it give?
A: 0%

Same assay, conditions: 20 μM labelled peptide + 20 μM MCL-1, TBS pH 7.6; 365 nm UV LED, 1 min; SDS-PAGE band intensity of crosslinked vs non-crosslinked MCL-1; value ± SD of three repeats; SD

Q: `CC[C@H](C)[C@H](NC(=O)[C@H](CC(N)=O)NC(=O)[C@H](CCCNC(=N)N)NC(=O)[C@@H](NC(=O)[C@@H](NC(=O)[C@H](CC(=O)O)NC(=O)[C@H](CCC(=O)O)NC(C)=O)[C@@H](C)CC)[C@@H](C)CC)C(=O)N[C@@H](C)C(=O)N[C@@H](CCCNC(=N)N)C(=O)N[C@@H](Cc1c[nH]cn1)C(=O)N[C@@H](CC(C)C)C(=O)N[C@@H](C)C(=O)N[C@@H](CCC(N)=O)C(=O)N[C@@H](CSSCCC1(C)N=N1)C(=O)NCC(=O)N[C@@H](CC(=O)O)C(=O)N[C@@H](CO)C(=O)N[C@@H](CCSC)C(=O)N[C@@H](CC(=O)O)C(=O)N[C@@H](CCCNC(=N)N)C(=O)N[C@@H](CO)C(=O)N[C@H](C(=O)N[C@@H](Cc1c[nH]c2ccccc12)C(N)=O)[C@@H](C)CC` [MTS-diazirine labelled V93C] (Ac-EDIIRNIARHLAQC(X2)GDSMDRSIW-NH2) was tested. Which “Crosslinked Mcl-1 (crosslinking efficiency)” value did it give?
A: 9 ± 3%

Q: For `CC[C@H](C)[C@H](NC(=O)[C@H](CC(N)=O)NC(=O)[C@H](CCCNC(=N)N)NC(=O)[C@H](CSSCc1ccc(C2(C(F)(F)F)N=N2)cc1)NC(=O)[C@@H](NC(=O)[C@H](CC(=O)O)NC(=O)[C@H](CCC(=O)O)NC(C)=O)[C@@H](C)CC)C(=O)N[C@@H](C)C(=O)N[C@@H](CCCNC(=N)N)C(=O)N[C@@H](Cc1c[nH]cn1)C(=O)N[C@@H](CC(C)C)C(=O)N[C@@H](C)C(=O)N[C@@H](CCC(N)=O)C(=O)N[C@H](C(=O)NCC(=O)N[C@@H](CC(=O)O)C(=O)N[C@@H](CO)C(=O)N[C@@H](CCSC)C(=O)N[C@@H](CC(=O)O)C(=O)N[C@@H](CCCNC(=N)N)C(=O)N[C@@H](CO)C(=O)N[C@H](C(=O)N[C@@H](Cc1c[nH]c2ccccc12)C(N)=O)[C@@H](C)CC)C(C)C` [MTS-TMFD labelled I83C] (Ac-EDIC(X1)RNIARHLAQVGDSMDRSIW-NH2), which “Crosslinked Mcl-1 (crosslinking efficiency)” value is on record?
A: 51 ± 6%

Q: With `CC[C@H](C)[C@H](NC(=O)[C@H](CC(N)=O)NC(=O)[C@H](CCCNC(=N)N)NC(=O)[C@@H](NC(=O)[C@@H](NC(=O)[C@H](CC(=O)O)NC(=O)[C@H](CCC(=O)O)NC(C)=O)[C@@H](C)CC)[C@@H](C)CC)C(=O)N[C@@H](C)C(=O)N[C@@H](CCCNC(=N)N)C(=O)N[C@@H](Cc1c[nH]cn1)C(=O)N[C@@H](CC(C)C)C(=O)N[C@@H](C)C(=O)N[C@@H](CCC(N)=O)C(=O)N[C@H](C(=O)NCC(=O)N[C@@H](CC(=O)O)C(=O)N[C@@H](CO)C(=O)N[C@@H](CSSCc1ccc(C2(C(F)(F)F)N=N2)cc1)C(=O)N[C@@H](CC(=O)O)C(=O)N[C@@H](CCCNC(=N)N)C(=O)N[C@@H](CO)C(=O)N[C@H](C(=O)N[C@@H](Cc1c[nH]c2ccccc12)C(N)=O)[C@@H](C)CC)C(C)C` [MTS-TMFD labelled M97C] (Ac-EDIIRNIARHLAQVGDSC(X1)DRSIW-NH2) as the molecule, how does the “Crosslinked Mcl-1 (crosslinking efficiency)” value read?
A: 26 ± 1%

Q: For `CC[C@H](C)[C@H](NC(=O)[C@H](CO)NC(=O)[C@H](CCCNC(=N)N)NC(=O)[C@H](CC(=O)O)NC(=O)[C@H](CCSC)NC(=O)[C@H](CO)NC(=O)[C@H](CC(=O)O)NC(=O)CNC(=O)[C@@H](NC(=O)[C@H](CCC(N)=O)NC(=O)[C@H](C)NC(=O)[C@H](CC(C)C)NC(=O)[C@H](Cc1c[nH]cn1)NC(=O)[C@H](CCCNC(=N)N)NC(=O)[C@H](C)NC(=O)[C@H](CSSCc1ccc(C2(C(F)(F)F)N=N2)cc1)NC(=O)[C@H](CC(N)=O)NC(=O)[C@H](CCCNC(=N)N)NC(=O)[C@@H](NC(=O)[C@@H](NC(=O)[C@H](CC(=O)O)NC(=O)[C@H](CCC(=O)O)NC(C)=O)[C@@H](C)CC)[C@@H](C)CC)C(C)C)C(=O)N[C@@H](Cc1c[nH]c2ccccc12)C(N)=O` [MTS-TMFD labelled I86C] (Ac-EDIIRNC(X1)ARHLAQVGDSMDRSIW-NH2), which “Crosslinked Mcl-1 (crosslinking efficiency)” value is on record?
A: 53 ± 1%

Q: With `CC[C@H](C)[C@H](NC(=O)[C@H](CC(N)=O)NC(=O)[C@H](CCCNC(=N)N)NC(=O)[C@H](CSSCCC1(C)N=N1)NC(=O)[C@@H](NC(=O)[C@H](CC(=O)O)NC(=O)[C@H](CCC(=O)O)NC(C)=O)[C@@H](C)CC)C(=O)N[C@@H](C)C(=O)N[C@@H](CCCNC(=N)N)C(=O)N[C@@H](Cc1c[nH]cn1)C(=O)N[C@@H](CC(C)C)C(=O)N[C@@H](C)C(=O)N[C@@H](CCC(N)=O)C(=O)N[C@H](C(=O)NCC(=O)N[C@@H](CC(=O)O)C(=O)N[C@@H](CO)C(=O)N[C@@H](CCSC)C(=O)N[C@@H](CC(=O)O)C(=O)N[C@@H](CCCNC(=N)N)C(=O)N[C@@H](CO)C(=O)N[C@H](C(=O)N[C@@H](Cc1c[nH]c2ccccc12)C(N)=O)[C@@H](C)CC)C(C)C` [MTS-diazirine labelled I83C] (Ac-EDIC(X2)RNIARHLAQVGDSMDRSIW-NH2) as the molecule, how does the “Crosslinked Mcl-1 (crosslinking efficiency)” value read?
A: 19 ± 2%

Biological target: T1, MCL-1
Assay: FP
Conditions: not given

Q: With EDIC(MTS‑TFMD)RNIARHLAQVGDSMDRSIP [BID_(80-102) I83C tagged with MTS-TFMD] as the molecule, how does the EC50 read?
A: 338 nM

Q: For B1, which EC50 is on record?
A: 360 nM

Q: Which EC50 does the source give for EDIIRNC(MTS‑diazirine)ARHLAQVGDSMDRSIP [BID_(80-102) I86C tagged with MTS-diazirine] here?
A: 5510 nM

Q: Which EC50 does the source give for B2 here?
A: 287 nM

Q: For EDIIRNIARHLAQVGDSC(MTS‑diazirine)DRSIP [BID_(80-102) M97C tagged with MTS-diazirine], which EC50 is on record?
A: 422 nM

Q: EDIC(MTS‑diazirine)RNIARHLAQVGDSMDRSIP [BID_(80-102) I83C tagged with MTS-diazirine] was tested. Which EC50 did it give?
A: 406 nM

Q: With EDIIRNC(MTS‑TFMD)ARHLAQVGDSMDRSIP [BID_(80-102) I86C tagged with MTS-TFMD] as the molecule, how does the EC50 read?
A: 1410 nM

Q: B3 was tested. Which EC50 did it give?
A: 460 nM

Q: For EDIIRNIARHLAQVGDSC(MTS‑TFMD)DRSIP [BID_(80-102) M97C tagged with MTS-TFMD], which EC50 is on record?
A: 255 nM

Q: How did the EC50 turn out when EDIIRNIARHLAQC(MTS‑diazirine)GDSMDRSIP [BID_(80-102) V93C tagged with MTS-diazirine] was run?
A: 8750 nM
